Values joined by “and” are separate entries in the source; they are usually repeats but may differ in a detail not shown here. Equal values may be shown once.
How the values were obtained:
Type in all cases: biochemical
[1] = CO-03 activity in presence of eugenol
Description: Stock solutions of coniferyl alcohol (250 mM), eugenol (0-2 M) were prepared in ethanol and stored at −20° C. Unless otherwise specified, the reaction mixtures (0.5 mL) were set up in 1.5 mL glass vials as follows: CO-03 (freeze-dried CFE 5-10 mg/mL) was dissolved in buffer (Glycine-NaOH 50 mM, pH 9.0 or Tris-HCl 50 mM, pH 8.0) with sodium ascorbate (1 mM), FeSO4 (1 mM), bovine liver catalase (Sigma C40, 10 mg/mL) and eugenol (0-100 mM). The final content of ethanol was 5-7% v/v. The reaction was initiated by the addition of coniferyl alcohol (5 mM), and then incubated for 4 hours at 30° C. and 120 rpm (rotary shaker). To improve the oxygenation, the vials were placed horizontally.

[2] = Spectrophotometric enzymatic assay: cleaving activity, production of vanillin from coniferyl alcohol at 349 nm; details: for Screening of putative COs: formation of 3a upon 2a cleavage (hit or inactive): spectrophotometric assay
Description: Stock solution 200× of coniferyl alcohol (90 mg) was prepared in ethanol (5 mL) and stored at −20° C. From this, a new stock solution 20× of coniferyl alcohol (10 mM) was freshly prepared by 1:10 dilution in Glycine-NaOH (50 mM, pH 9.0). A cuvette containing 0.750 mL Glycine-NaOH (50 mM, pH 9.0) and 0.05 mL of the substrate 20× stock was pre-warmed at 25° C. for 1.5 mins. Then, the reaction was initiated by the addition of 0.2 mL of the enzyme sample. The cleaving […] activity was measured spectrophotometrically following the production of vanillin at 349 nm (ε349=26.7 mM^−1cm^−1 experimentally determined). One unit of activity (U) is defined as the amount of enzyme required to produce 1 μmol of vanillin per min. Agilent Cary 60 UV-Vis Spectrophotometer was used for all the measurements.
Searching for alternative novel alkene cleavage oxygenases (COs) catalysing the formation of vanillin from coniferyl alcohol was performed. A set of 27 sequences and 10 COs from different branches of the phylogenetic tree were selected, named CO-02-11. Two additional enzymes were included, which are located in different clusters of the phylogenetic tree: Lignostillbene dioxygenase from Pseudomonas brassicaceraum (PbLSD, PDB: 5V2D) and aromatic dioxygenase (Ado, CO-01) from Thermothelomyces thermophilus (GenBank ID: XP_003665585). The proteins were recombinantly expressed in E. coli BL21(DE3), following the same protocol developed for IECO. […] Putative COs were screened by spectrophotometric assay, monitoring the formation of 3a upon 2a cleavage. From a set of twelve COs, four positive hits, namely CO-01, CO-03, CO-06 and CO-07 were found. Positive variants were tested in the one pot cascade and compared them with IECO In agreement with the spectrophotometric screening, all four COs converted eugenol 1a to vanillin 3a (Table 8). The first step of the cascade is efficiently performed by EUGO, and the substrate is completely consumed. […] Overall, 70±3% conversion of 1a to vanillin 3a was achieved.

[3] = Bioconversion of eugenol to vanillin: one-pot concurrent cascade EUGO + alkene cleavage oxygenase (5 mM scale); details: for Reaction composition after 24 hours 1a (%) / Reaction composition after 24 hours 2a (%) / Reaction composition after 24 hours 3a (%) / Reaction composition after 24 hours 5a (%): Table 8a, CO-XX FD-CFE 1 mg/mL; for Reaction composition after 24 hours 1a (%) / Reaction composition after 24 hours 2a (%) / Reaction composition after 24 hours 3a (%) / Reaction composition after 24 hours 5a (%) / Product distribution after 24 hours 2a (%) / Product distribution after 24 hours 3a (%) / Product distribution after 24 hours 5a (%): EUGO FD-CFE 1 mg/mL, catalase 10 mg/mL, eugenol 5 mM; for Product distribution after 24 hours 2a (%) / Product distribution after 24 hours 3a (%) / Product distribution after 24 hours 5a (%): Table 8b, CO-0X FD-CFE 1 mg/mL; for Conversion of 1a to 3a (%) / Reaction composition at 24 hours (%) 1a / Reaction composition at 24 hours (%) 2a / Reaction composition at 24 hours (%) 3a / Reaction composition at 24 hours (%) 5a: replicates of concurrent cascade with EUGO, 5 mM 1a, SD of four experiments; for Conversion of 1a to 3a (%): 24 h
Method in brief: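 Cell-free extracts of EUGO (0.5 mg) and cleavage oxygenase (3 mg) were combined with catalase, 1 mM FeSO4 and 1 mM ascorbate in glycine-NaOH pH 9.0 (or Tris-HCl pH 8.0). The cascade ran with 5 mM eugenol (5% ethanol/DMSO cosolvent) at 30° C and 120 rpm overnight. Methanol-quenched samples were analysed by HPLC at 280/340 nm.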

[4] = cascade with EUGO, pH 8.0 and pH 9.0

B1: CO-03: alkene cleavage oxygenase from Sphingomonadales bacterium, SEQ ID NO: 30 (protein, listed as Sphingomonadales bacterium)
chain: MSLFNRNHPVFSGGNAPVRIETDAICLETDGALPDELKGSYFRLTADPQFPPRLRPVLVEADGHVGAFHFRDNGQVDYVGKWVRTERFLRERAARRALFGTYRNRFTDEESVLDSDRTTANTAFMFHHHKFFALKEDGLPYQLDPETLDTIGRYDFGGTVSAKSLSAHPKVDSRTGELITHSGQAKGEGTPDIAYYVFDKNGTKTVERWFEAPYSSIVHDIAITQDWVVLPIMPAVVEEERLRAGGATYWWKPELGNHIAVFRRDGTGDVRWFRTKATYAFHVVNSYQDGDRLIIDVMDAEEFPMWWPRPEQVAALRSGEIKRDKFVAQLTRWTIDLAGDSDDIERELLHPWEAEMPRIDDRFAGQPYRYAVYGVDDPSFPLAHGLAELGVNHNSVGWWDHQTRTLTSWYTGPNSSVGEPVFTPRSPDAPEGDGFILAVVQRLAEQRSELVVIDTRDVAAGPIASVHAPHRLKNAIHNLWIDQEQLNEGGEKA
cleaving activity retained ([1]; 50 mM 1a, increased biocatalyst amount and modified reaction buffer): 49%
Residual activity ([1]; at 50 mM 1a): ≤ 10%
Specific Activity (mU/mg of FD-CFE) ([2]; freeze-dried cell free extract incl. buffer salts, vanillin from coniferyl alcohol): 7-10 mU/mg
Screening of putative COs: formation of 3a upon 2a cleavage (hit or inactive) [2]: positive hits
Reaction composition after 24 hours 1a (%) ([3]; pH 8.0): ≤1%
Reaction composition after 24 hours 2a (%) ([3]; pH 8.0): 14%
Reaction composition after 24 hours 3a (%) ([3]; pH 8.0): 78%
Reaction composition after 24 hours 5a (%) ([3]; pH 8.0): 8%
Reaction composition after 24 hours 1a (%) ([3]; pH 9.0): ≤1%
Reaction composition after 24 hours 2a (%) ([3]; pH 9.0): 8%
Reaction composition after 24 hours 3a (%) ([3]; pH 9.0): 81%
Reaction composition after 24 hours 5a (%) ([3]; pH 9.0): 11%
Product distribution after 24 hours 2a (%) ([3]; pH 8.0): 19.6%
Product distribution after 24 hours 3a (%) ([3]; pH 8.0): 72.0%
Product distribution after 24 hours 5a (%) ([3]; pH 8.0): 8.4%
Product distribution after 24 hours 2a (%) ([3]; pH 9.0): 11.9%
Product distribution after 24 hours 3a (%) ([3]; pH 9.0): 74.9%
Product distribution after 24 hours 5a (%) ([3]; pH 9.0): 13.2%
amount of 3a in reaction mixture [3, 4]: 78-81%
remaining 2 and its oxidation product 5a in the reaction mixture [3, 4]: ~20%
Conversion of 1a to 3a (%) ([3]; pH 8.0): 70 ± 3%
Reaction composition at 24 hours (%) 1a ([3]; pH 8.0): 1≤ %
Reaction composition at 24 hours (%) 2a ([3]; pH 8.0): 14 ± 3%
Reaction composition at 24 hours (%) 3a ([3]; pH 8.0): 80 ± 2%
Reaction composition at 24 hours (%) 5a ([3]; pH 8.0): 9 ± 1%
Conversion of 1a to 3a (%) ([3]; pH 9.0): 70 ± 3%
Reaction composition at 24 hours (%) 1a ([3]; pH 9.0): 1≤ %
Reaction composition at 24 hours (%) 2a ([3]; pH 9.0): 7 ± 2%
Reaction composition at 24 hours (%) 3a ([3]; pH 9.0): 83 ± 3%
Reaction composition at 24 hours (%) 5a ([3]; pH 9.0): 10 ± 1%
overall conversion of 1a to vanillin 3a in the 2-step cascade ([3]; with EUGO, 5 mM substrate concentration): 70±3% and 70%

B2: CO-07: alkene cleavage oxygenase, Thermopolyspora flexuosa, SEQ ID NO: 40 (protein, listed as Thermopolyspora flexuosa)
chain: MVWFPPPKDPFDAPMRVEADIRGVQVTQGEVPEHLDGTYYRCVSDRQWPSYVENDLELFNSDGMIISFRFHKGRVDFKSRYVRTPRFVAEEKAGRALFGAYRNPFDDDPSVAGISRGLANTNVFFHGGKLYASKEDSPPILIDPDTLETIGEYDFEGALTSRTATAHPKFDPVTGEMVFFGYEAKGPGTPDIAYYEADPSGRIIHEAWLEAPYTSMVHDWAVTQNFVIFPIIPLRSDIEWIKKGQSYFQWDPYEDVYLGVMPRKGTAKDLRWYRGSNRFASHIMGAYDDGRYVYIDTPVGQTNYFPWFPDITGAPYDPERSKGYLSRWTIDTQGESDGFTETRLSDLPGEFPRMDDRQETLPYHWGIMLLTDVPGRNAPGGGFRWLMGIDLKTGRKQIYYPGDHCTLGEAIFVPAAPDAPPGVGYVLTVVARRKEMRSDLVLLDAQRLDGEPVCTLSLPMRIRMGVHGNWVSAAELAGRTD
Screening of putative COs: formation of 3a upon 2a cleavage (hit or inactive) [2]: positive hits
Reaction composition after 24 hours 1a (%) ([3]; pH 8.0): 51%
Reaction composition after 24 hours 2a (%) ([3]; pH 8.0): 61%
Reaction composition after 24 hours 3a (%) ([3]; pH 8.0): 21%
Reaction composition after 24 hours 5a (%) ([3]; pH 8.0): 18%
Reaction composition after 24 hours 1a (%) ([3]; pH 9.0): 51%
Reaction composition after 24 hours 2a (%) ([3]; pH 9.0): 50%
Reaction composition after 24 hours 3a (%) ([3]; pH 9.0): 27%
Reaction composition after 24 hours 5a (%) ([3]; pH 9.0): 23%
